Consider 3 molecules from patent US20090111745A1 (DOMANTIS, published 2009).

The target in test [1] is T1, mouse serum albumin (mouse, UniProt P07724 25-608).
T1 construct: also called MSA
The experiment in a line: phage display selection on albumin (figure legend).

Test [2] concerns the target T2, rat serum albumin (rat, UniProt P02770 25-608).
T2 construct: also called RSA
Briefly: BIACORE, RSA flow cell (Fc=3), fit of the single trace at 5n analyte, row 'Fc=3 -5'; KD cell shaded [contd.]. A general note: Surface plasmon resonance follows binding to a sensor surface in real time, without labels.
Protocol: (§1) dAbs that bound serum albumin on a BIACORE chip (Biacore AB) were then further analysed to obtain information on affinity. The analysis was performed using a CM5 chip (carboxymethylated dextran matrix) that was coated with serum albumin. Flow cell 1 was an uncoated, blocked negative control, flow cell 2 was coated with HSA, flow cell 3 was coated with RSA and flow cell 4 was coated with MSA. The serum albumins were immobilised in acetate buffer pH 5.5 using the BIACORE coating wizard which was programmed to aim for 500 resonance units (RUs) of coated material. Each dAb of interest was expressed in the periplasm of E. coli on a 200 mL-500 mL scale and purified from the supernatant using batch absorption to protein A-streamline affinity resin (Amersham, UK) for the VH_{^S} and to protein L-agarose affinity resin (Affitech, Norway) for the Vκs followed by elution with glycine at pH 2.2 and buffer exchange to PBS. A range of concentrations of dAb were prepared (in the range 5 nM to 5 μM) by dilution into BIACORE HBS-EP buffer and flowed across the BIACORE chip.

The target of test [3] is T2, rat serum albumin. The experiment in a line: BIACORE, RSA flow cell (Fc=3), fit of the single trace at 15n analyte, row 'Fc=3 -3'; KD cell shaded [contd.].
Protocol: as §1
For test [4], the target named is T2, rat serum albumin. The experiment in a line: BIACORE, RSA flow cell (Fc=3), fit of the single trace at 25n analyte, row 'Fc=3 -1'; KD cell shaded [contd.].
Protocol: (§2) dAbs that bound serum albumin on a BIACORE chip (Biacore AB) were then further analysed to obtain information on affinity. The analysis was performed using a CM5 chip (carboxymethylated dextran matrix) that was coated with serum albumin. Flow cell 1 was an uncoated, blocked negative control, flow cell 2 was coated with HSA, flow cell 3 was coated with RSA and flow cell 4 was coated with MSA. The serum albumins were immobilised in acetate buffer pH 5.5 using the BIACORE coating wizard which was programmed to aim for 500 resonance units (RUs) of coated material. […] A range of concentrations of dAb were prepared (in the range 5 nM to 5 μM) by dilution into BIACORE HBS-EP buffer and flowed across the BIACORE chip.
For test [5], the target named is T2, rat serum albumin. The experiment in a line: BIACORE, RSA flow cell (Fc=3), fit of the single trace at 5n analyte, row 'Fc=3 -5' [contd.].
Protocol: as §1
Test [6] deals with T2, rat serum albumin. Briefly: BIACORE, RSA flow cell (Fc=3), fit of the single trace at 10n analyte, row 'Fc=3 -4'; KD cell shaded [contd.].
Protocol: as §2
Test [7] deals with T2, rat serum albumin. Briefly: BIACORE, RSA flow cell (Fc=3), fit of the single trace at 25n analyte, row 'Fc=3 -1' [contd.].
Protocol: as §1
Test [8] deals with T2, rat serum albumin. Briefly: BIACORE SPR, albumin on a CM5 chip, dAb in solution.
Protocol: as §1
Test [9] addresses T1, mouse serum albumin. The experiment in a line: table of affinities (KD); BIACORE on serum albumin-coated chip according to Example 1.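 Also: surface plasmon resonance with dAbs flowed over a chip carrying human, rat or mouse serum albumin, blocked uncoated flow cell as reference, KD from on- and off-rate curve fits.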
Protocol: as §1
The target of test [10] is T2, rat serum albumin. The description is as above.
Protocol: as §1
The target of test [11] is T3, human serum albumin (human, UniProt P02768 25-609).
T3 construct: also called HSA; HAS
The test is described as above.
Protocol: as §1

The target of test [12] is T2, rat serum albumin. Briefly: BIACORE, RSA flow cell (Fc=3), fit of the single trace at 15n analyte, row 'Fc=3 -3' [contd.].
Protocol: as §1
Test [13] has as its target T2, rat serum albumin. The experiment in a line: BIACORE, RSA flow cell (Fc=3), fit of the single trace at 20n analyte, row 'Fc=3 -2'; KD cell shaded [contd.].
Protocol: as §1
In test [14] the target is T2, rat serum albumin. The experiment in a line: BIACORE, RSA flow cell (Fc=3), fit of the single trace at 10n analyte, row 'Fc=3 -4' [contd.].
Protocol: as §1
Test [15] deals with T2, rat serum albumin. Briefly: BIACORE, RSA flow cell (Fc=3), fit of the single trace at 20n analyte, row 'Fc=3 -2' [contd.].
Protocol: as §1
In test [16] the target is T3, human serum albumin. The experiment in a line: method not stated there (BIACORE SPR in Example 1); reference value given inside prophetic Example 10.
Another test has as its target porcine serum albumin (porcine, UniProt P08835 25-607). The experiment in a line: method not stated in the legend (BIACORE SPR for the other affinities).
Test [17] concerns the target T3, human serum albumin. Briefly: BIACORE SPR, albumin on a CM5 chip, dAb in solution.
Protocol: as §1

Sequence of porcine serum albumin (P08835 25-607 limits assumed): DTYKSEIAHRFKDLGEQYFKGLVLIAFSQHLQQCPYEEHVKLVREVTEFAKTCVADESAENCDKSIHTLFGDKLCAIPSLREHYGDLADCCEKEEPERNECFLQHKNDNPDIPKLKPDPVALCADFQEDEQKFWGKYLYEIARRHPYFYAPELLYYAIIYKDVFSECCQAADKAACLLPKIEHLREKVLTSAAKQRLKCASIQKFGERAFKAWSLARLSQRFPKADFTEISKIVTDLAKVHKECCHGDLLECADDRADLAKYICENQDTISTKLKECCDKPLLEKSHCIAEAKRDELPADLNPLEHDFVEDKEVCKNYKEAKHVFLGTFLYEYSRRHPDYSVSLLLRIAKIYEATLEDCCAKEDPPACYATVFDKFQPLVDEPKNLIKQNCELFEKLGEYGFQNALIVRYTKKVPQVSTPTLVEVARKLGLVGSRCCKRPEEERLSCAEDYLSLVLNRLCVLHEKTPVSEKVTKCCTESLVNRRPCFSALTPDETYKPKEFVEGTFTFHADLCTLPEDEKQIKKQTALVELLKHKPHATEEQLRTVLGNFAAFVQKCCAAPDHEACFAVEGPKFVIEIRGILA

B1: DOM7m-12 (other)
VL: DIQMTQSPSSLSASVGDRVTITCRASQSIFRHLKWYQQKPGKAPKLLIYAASRLQSGVPSRFSGSGSGTDFTLTISSLQPEDFATYYCQQVALYPKTFGQGTKVEIKR
notes: also called MSA 12
For B1, the binding result in the test with mouse serum albumin [1] was “binds”.

B2: DOM7r-1 (other)
VL: DIQTTQSPSSLSASVGDRVTITCRASQYIGRYLRWYQQKPGKAPKLLIYDSSVLQSGVPSRFSGSGSGTDFTLTISSLQPEDFATYYCQQRYRMPYTFGQGTRVEIKR
As to B2, the Kd (commonly the constant that tells how readily two partners part at equilibrium) in the test with rat serum albumin [2] was 16.3 nM; with rat serum albumin [3] it was 13.1 nM; with rat serum albumin [4], 10.7 nM; with rat serum albumin [6] it was 11 nM; with rat serum albumin [8], 10 to 100 nM; with rat serum albumin [10], 15 nM. Besides, binding with rat serum albumin [13] was characterised by a dissociation constant (Kd) of 11.9 nM. The Ka is 6.12e+07 M⁻¹ with rat serum albumin [5]; 9.35e+07 M⁻¹ with rat serum albumin [7]; 7.62e+07 M⁻¹ with rat serum albumin [12]; 9.07e+07 M⁻¹ with rat serum albumin [14]; 8.41e+07 M⁻¹ in the test with rat serum albumin [15]. The koff – broadly, a measure of how fast the partners let go of each other – with rat serum albumin [5] stood at 0.0316 s⁻¹; in the test with rat serum albumin [7], 0.0345 s⁻¹; in the test with rat serum albumin [12], 0.0331 s⁻¹; with rat serum albumin [14] it was 0.0316 s⁻¹; in the test with rat serum albumin [15], 0.0344 s⁻¹. Further, the kon (usually a measure of how fast the partners come together) with rat serum albumin [5] was 1.93e+06 M⁻¹ s⁻¹; in the test with rat serum albumin [7], 3.23e+06 M⁻¹ s⁻¹; in the test with rat serum albumin [12], 2.52e+06 M⁻¹ s⁻¹; with rat serum albumin [14], 2.87e+06 M⁻¹ s⁻¹; with rat serum albumin [15], 2.89e+06 M⁻¹ s⁻¹. For the same molecule, the binding result with mouse serum albumin [9] and with human serum albumin [11] was “no binding” throughout.

B3: DOM7h-8 (other)
VL: DIQMTQSPSSLSASVGDRVTITCRASQSISSYLNWYQQKPGKAPKLLIYRNSPLQSGVPSRFSGSGSGTDFTLTISSLQPEDFATYYCQQTYRVPPTFGQGTKVEIKR
As to B3, the equilibrium dissociation constant (Kd) was 70 nM in the test with human serum albumin [16]; 60 nM in the test with porcine serum albumin; 100 to 500 nM in the test with rat serum albumin [8]; 10 to 100 nM with human serum albumin [17]; 200 nM with mouse serum albumin [9]; 120 nM in the test with rat serum albumin [10].
